Results as given in publication PMC2797393, “Structure of the hDmc1-ssDNA Filament Reveals the Principles of Its Architecture” (PLoS ONE, 2010).

Target: the molecule itself
Assay: negative-stain electron microscopy with single-particle statistical analysis; hDmc1 10 uM without DNA, 25 mM Tris-acetate pH 7.0, 2 mM ATP, 100 mM NaCl, 1 mM DTT, 2 mM CaCl2, 37 C for 30 min then on ice; eigen images and class averages of ring particles

B1: Human Dmc1 (hDmc1) (natural protein)
chain: MKEDQVVAEEPGFQDEEESLFQDIDLLQKHGINVADIKKLKSVGICTIKGIQMTTRRALCNVKGLSEAKVDKIKEAANKLIEPGFLTAFEYSEKRKMVFHITTGSQEFDKLLGGGIESMAITEAFGEFRTGKTQLSHTLCVTAQLPGAGGYPGGKIIFIDTENTFRPDRLRDIADRFNVDHDAVLDNVLYARAYTSEHQMELLDYVAAKFHEEAGIFKLLIIDSIMALFRVDFSGRGELAERQQKLAQMLSRLQKISEEYNVAVFVTNQMTADPGATMTFQADPKKPIGGHILAHASTTRISLRKGRGELRIAKIYDSPEMPENEATFAITAGGIGDAKE
notes: human Dmc1, a protein of 340 amino acid residues: N-terminal domain 1-81 and core ATPase domain 82-340; Probably the whole 340-residue protein, since both domains (1-81 and 82-340) were docked into the maps; Octameric ring without DNA; helical filament of open length on DNA; also called human meiotic recombinase Dmc1; source: E. coli BLR(DE3), purified (ammonium sulfate precipitation, HisTrap HP, …)
- stoichiometry N: 8
